Test results taken from patent publication US20130034568A1 (UNIVERSITY OF LOUISVILLE RESEARCH FOUNDATION, published 2013).

B1: C5a receptor (C5aR; CD88), mouse, on peritoneal macrophages (receptor, UniProt P30993 1-351, looked up)
chain: MDPIDNSSFEINYDHYGTMDPNIPADGIHLPKRQPGDVAALIIYSVVFLVGVPGNALVVWVTAFEARRAVNAIWFLNLAVADLLSCLALPVLFTTVLNHNYWYFDATACIVLPSLILLNMYASILLLATISADRFLLVFKPIWCQKVRGTGLAWMACGVAWVLALLLTIPSFVYREAYKDFYSEHTVCGINYGGGSFPKEKAVAILRLMVGFVLPLLTLNICYTFLLLRTWSRKATRSTKTLKVVMAVVICFFIFWLPYQVTGVMIAWLPPSSPTLKRVEKLNSLCVSLAYINCCVNPIIYVMAGQGFHGRLLRSLPSIIRNALSEDSVGRDSKTFTPSTTDTSTRKSQAV
notes: whole, on cells; In FRET it was detected with a dye-labelled mouse-specific monoclonal antibody (clone 20/70); also called complement C5a receptor

Tests used:
[1] = target: C5a receptor (C5aR; CD88), mouse, on peritoneal macrophages (mouse) (UniProt P30993); test: cell-based or functional assay
[2] = target: T1, CXC-chemokine receptor 4 (CXCR4), mouse, on peritoneal macrophages (mouse, UniProt P70658 1-359); test: FRET, acceptor photobleaching, labelled antibodies on P. gingivalis-challenged mouse macrophages
T1 construct: whole, on cells
T1 sequence (P70658 whole entry): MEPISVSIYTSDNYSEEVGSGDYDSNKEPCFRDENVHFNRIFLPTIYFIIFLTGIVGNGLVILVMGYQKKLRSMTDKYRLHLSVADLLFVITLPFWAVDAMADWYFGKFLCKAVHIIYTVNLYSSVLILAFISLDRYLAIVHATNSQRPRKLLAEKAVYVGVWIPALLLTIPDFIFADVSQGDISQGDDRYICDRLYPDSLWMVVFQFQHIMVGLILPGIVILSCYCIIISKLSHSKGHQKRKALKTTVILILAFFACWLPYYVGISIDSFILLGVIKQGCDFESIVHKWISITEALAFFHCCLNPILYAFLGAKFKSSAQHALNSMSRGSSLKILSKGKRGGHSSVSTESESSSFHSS
Description: (§1) Upon stimulation for 10 min at 37° C. with P. gingivalis, mouse macrophages were labeled with a mixture of Cy3-conjugated (donor) and Cy5-conjugated (acceptor) antibodies, as indicated in FIG. 4I. In additional experiments shown in FIG. 4I, FITC-labeled P. gingivalis was used as donor and TRITC-labeled receptors served as acceptors. The cells were washed and fixed, and energy transfer between various donor-acceptor pairs was calculated from the increase in donor fluorescence after acceptor photobleaching (REF 9, 14). […] The conjugation of antibodies to Cy3 or Cy5 was performed using kits from Amersham Biosciences.

[3] = target: T2, TLR5, mouse, on peritoneal macrophages (mouse, UniProt Q9JLF7 27-859); test: FRET, acceptor photobleaching, labelled antibodies on P. gingivalis-stimulated mouse macrophages
T2 construct: whole, on cells; Negative control in FRET; detected with antibody clone 85B152.5; also called Toll-like receptor 5
T2 sequence (Q9JLF7 27-859): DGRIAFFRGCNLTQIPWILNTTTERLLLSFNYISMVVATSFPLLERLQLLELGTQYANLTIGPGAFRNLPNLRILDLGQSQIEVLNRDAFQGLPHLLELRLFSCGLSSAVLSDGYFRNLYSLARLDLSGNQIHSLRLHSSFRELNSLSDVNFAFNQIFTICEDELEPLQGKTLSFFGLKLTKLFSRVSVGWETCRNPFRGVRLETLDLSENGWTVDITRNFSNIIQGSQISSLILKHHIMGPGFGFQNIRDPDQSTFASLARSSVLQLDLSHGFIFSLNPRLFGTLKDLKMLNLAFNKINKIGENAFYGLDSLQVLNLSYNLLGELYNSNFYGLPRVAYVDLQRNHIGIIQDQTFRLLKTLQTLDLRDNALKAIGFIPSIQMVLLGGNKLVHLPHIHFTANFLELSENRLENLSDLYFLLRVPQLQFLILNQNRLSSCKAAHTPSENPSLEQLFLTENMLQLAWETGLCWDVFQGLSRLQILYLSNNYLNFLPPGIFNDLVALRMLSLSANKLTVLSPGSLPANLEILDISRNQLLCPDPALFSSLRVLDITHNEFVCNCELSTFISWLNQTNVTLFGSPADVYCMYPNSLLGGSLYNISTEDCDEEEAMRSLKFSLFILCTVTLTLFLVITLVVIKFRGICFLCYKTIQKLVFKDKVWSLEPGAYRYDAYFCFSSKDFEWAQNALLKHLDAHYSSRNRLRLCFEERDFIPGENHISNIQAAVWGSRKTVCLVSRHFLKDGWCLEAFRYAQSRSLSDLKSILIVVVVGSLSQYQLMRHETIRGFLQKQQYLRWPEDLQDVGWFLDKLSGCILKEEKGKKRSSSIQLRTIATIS
Description: as §1

| Molecule | intracellular cAMP in P. gingivalis-stimulated mouse macrophages [1] [fold] | binding result [2] | binding result [3] |
| --- | --- | --- | --- |
| Mouse C5a (from UniProt P06684 679-755) (ligand) | > 3 |  |  |
| B1 |  | binds | no binding |
